Results from patent publication US20190359687A1 (Bayer, published 2019).
Positions count from the first letter of the chain named. Each block holds one binder with its values, some of them ahead of it. No end group written: not given here. *: point of attachment. Biotin = O=C1N[C@H]2[C@H](CS[C@H]2CCCCC(=O)*)N1

Legend:
[1] = molecular target: T1, human glycophorin A in the red blood cell membrane (human, UniProt P02724 20-150); assay: SPR, human RBC membranes, Fab
T1 construct: whole, on cells; used for intact RBC, isolated RBC membranes and transfected cells; the assay field tells which; also called GPA; hGPA
T1 sequence (looked up): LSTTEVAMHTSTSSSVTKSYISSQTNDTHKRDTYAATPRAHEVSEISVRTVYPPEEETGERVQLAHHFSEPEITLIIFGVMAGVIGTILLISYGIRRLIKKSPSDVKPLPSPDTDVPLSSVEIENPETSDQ
Experimental: Kinetic analysis of the antibody binding to human red blood cell membranes was also performed using surface plasmon resonance (SPR) using a Biacore instrument. In this assay membranes prepared from human red blood cells were attached to a L1 sensor matrix and antibodies were flowed over the RBC membranes.

[2] = molecular target: T2, Cynomolgus monkey glycophorin A on Cynomolgus monkey red blood cells or red blood cell membranes (Cynomolgus monkey); assay: Fab on intact cyno RBC, unbound Fab by ELISA; 0 min after 200-fold dilution
T2 construct: whole, on cells; also called Cyno RBC; Cynomolgus monkey RBC membranes
Experimental: (§1) The binding of affinity matured Fab antibodies to intact Cynomolgus monkey RBC was measured. Cynomolgus monkey RBC were isolated from fresh anti-coagulated blood by centrifugation through a ficol gradient and washing in PBS buffer. RBC diluted to 1/10th of normal hematocrit were incubated with the Fab at a final concentration of 7 ug/ml for 1 hour at room temperature on a rotating shaker after which a sample was taken and the RBC were pelleted by centrifugation and the supernatant was collected. The remaining RBC suspension was diluted 200-fold in PBS buffer and incubated for a total of 2 hours at room temperature on a rotating shaker and samples were removed at 0, 5 min, 20 min, 1 h and 2 h and the RBC pelleted and the supernatant collected. […] The amount of Fab in the supernatants was then measured using an ELISA assay and the results used to calculate the percentage of the input Fab that was bound to the RBC.

[3] = molecular target: T3, human glycophorin A on human red blood cells or red blood cell membranes (human, UniProt P02724 20-150); assay: Fab on intact human RBC, unbound Fab by ELISA; 5 min after 200-fold dilution
T3 construct: whole, on cells; also called hRBC; human RBC membranes
T3 sequence (looked up): T1 sequence (looked up)
Experimental: (§2) The binding of affinity matured Fab antibodies to intact human RBC was also measured. Human RBC were isolated from fresh anti-coagulated normal human blood by centrifugation through a ficol gradient and washing in PBS buffer. RBC diluted to 1/10th of normal hematocrit were incubated with purified Fab antibodies at a final concentration of 7 ug/ml for 1 hour at room temperature on a rotating shaker after which a sample was taken and the RBC were pelleted by centrifugation and the supernatant was collected. The remaining RBC suspension was diluted 200-fold in PBS buffer and incubated for a total of 2 hours at room temperature on a rotating shaker and samples were removed at 0, 5 min, 20 min, 1 h and 2 h and the RBC pelleted and the supernatant collected. The amount of Fab in the supernatants was then measured using an ELISA assay and the results used to calculate the percentage of the input Fab that was bound to the RBC. […] The percentage that remains bound after 200-fold dilution of the RBC suspension is an indication of the overall strength of the binding to human RBC.

[4] = molecular target: T3, human glycophorin A on human red blood …; assay: Fab on intact human RBC, unbound Fab by ELISA; 0 min after 200-fold dilution
Experimental: as §2

[5] = molecular target: T3, human glycophorin A on human red blood …; assay: Fab on intact human RBC, unbound Fab by ELISA; 120 min after 200-fold dilution
[6] = molecular target: T2, Cynomolgus monkey glycophorin A on …; assay: Fab on intact cyno RBC, unbound Fab by ELISA; 20 min after 200-fold dilution
Experimental: as §1

[7] = molecular target: T4, GP12 peptide of the human GPA ectodomain (human, not fully specified (N-terminus)); assay: ELISA, Fab 0.5 ug/ml on biotin-peptide on streptavidin plate
T4 peptide: YPPEEETG
Text: (§3) These peptides were attached to the surface of a streptavidin coated plate via a biotin moiety that was present at the N-terminus of each peptide.

[8] = molecular target: T5, GP14 peptide of the human GPA ectodomain (human, not fully specified (N-terminus)); assay: as above
T5 peptide: PEEETGER
Text: as §3

[9] = molecular target: T6, GP11 peptide of the human GPA ectodomain (human, not fully specified (N-terminus)); assay: as above
T6 peptide: VYPPEEET
Text: as §3

[10] = molecular target: T7, GP10 peptide of the human GPA ectodomain (human, not fully specified (N-terminus)); assay: as above
T7 peptide: TVYPPEEE
Text: as §3

[11] = molecular target: T8, GP8 peptide of the human GPA ectodomain (human, not fully specified (N-terminus)); assay: as above
T8 peptide: VRTVYPPE
Text: as §3

[12] = molecular target: T9, GP15 peptide of the human GPA ectodomain (human, not fully specified (N-terminus)); assay: as above
T9 peptide: EEETGERV
Text: as §3

[13] = molecular target: T10, GP7 peptide of the human GPA ectodomain (human, not fully specified (N-terminus)); assay: as above
T10 peptide: SVRTVYPP
Text: as §3

[14] = molecular target: T11, GP9 peptide of the human GPA ectodomain (human, not fully specified (N-terminus)); assay: as above
T11 peptide: RTVYPPEE
Text: as §3

[15] = molecular target: T12, GP13 peptide of the human GPA ectodomain (human, not fully specified (N-terminus)); assay: as above
T12 peptide: PPEEETGE
Text: as §3

[16] = molecular target: T13, GP5 peptide of the human GPA ectodomain (human, N-terminal biotin); assay: as above
T13 construct: Residues 42 to 61 of the human GPA extracellular domain
Text: as §3

[17] = molecular target: T14, GP16 peptide of the human GPA ectodomain (human, not fully specified (N-terminus)); assay: as above
T14 peptide: EETGERVQ
Text: as §3

[18] = molecular target: T4, GP12 peptide of the human GPA ectodomain; assay: ELISA, Fab 0.05 ug/ml on biotin-peptide on streptavidin plate
Text: as §3

[19] = molecular target: T5, GP14 peptide of the human GPA ectodomain; assay: as above
Text: as §3

[20] = molecular target: T6, GP11 peptide of the human GPA ectodomain; assay: as above
Text: as §3

[21] = molecular target: T7, GP10 peptide of the human GPA ectodomain; assay: as above
Text: as §3

[22] = molecular target: T8, GP8 peptide of the human GPA ectodomain; assay: as above
Text: as §3

[23] = molecular target: T9, GP15 peptide of the human GPA ectodomain; assay: as above
Text: as §3

[24] = molecular target: T10, GP7 peptide of the human GPA ectodomain; assay: as above
Text: as §3

[25] = molecular target: T11, GP9 peptide of the human GPA ectodomain; assay: as above
Text: as §3

[26] = molecular target: T12, GP13 peptide of the human GPA ectodomain; assay: as above
Text: as §3

[27] = molecular target: T13, GP5 peptide of the human GPA ectodomain; assay: as above
Text: as §3

[28] = molecular target: T14, GP16 peptide of the human GPA ectodomain; assay: as above
Text: as §3

[29] = molecular target: T3, human glycophorin A on human red blood …; assay: Fab on intact human RBC, unbound Fab by ELISA; 60 min after 200-fold dilution
Experimental: as §2

[30] = molecular target: T2, Cynomolgus monkey glycophorin A on …; assay: Fab on intact cyno RBC, unbound Fab by ELISA; 120 min after 200-fold dilution
[31] = molecular target: T3, human glycophorin A on human red blood …; assay: Fab 7 ug/ml on intact human RBC, unbound Fab by ELISA; pre-dilution
Experimental: as §2

[32] = molecular target: T2, Cynomolgus monkey glycophorin A on …; assay: Fab on intact cyno RBC, unbound Fab by ELISA; 60 min after 200-fold dilution
[33] = molecular target: T2, Cynomolgus monkey glycophorin A on …; assay: Fab on intact cyno RBC, unbound Fab by ELISA; 5 min after 200-fold dilution
Experimental: as §1

[34] = molecular target: T3, human glycophorin A on human red blood …; assay: Fab on intact human RBC, unbound Fab by ELISA; 20 min after 200-fold dilution
[35] = molecular target: T2, Cynomolgus monkey glycophorin A on …; assay: Fab 7 ug/ml on intact cyno RBC, unbound Fab by ELISA; pre-dilution
Experimental: as §1

GP13 peptide = molecular target: T15, GP13 peptide (human); assay: peptide ELISA, Fab
T15 peptide: Biotin-PPEEETGE
Text: as §3

GP7 peptide = molecular target: T16, GP7 peptide (human); assay: peptide ELISA, Fab
T16 peptide: Biotin-SVRTVYPP
Text: as §3

GP14 peptide = molecular target: T17, GP14 peptide (human); assay: peptide ELISA, Fab
T17 peptide: Biotin-PEEETGER
Text: as §3

GP11 peptide = molecular target: T18, GP11 peptide (human); assay: peptide ELISA, Fab
T18 peptide: Biotin-VYPPEEET
Text: as §3

GP10 peptide = molecular target: T19, GP10 peptide (human); assay: peptide ELISA, Fab
T19 peptide: Biotin-TVYPPEEE
Text: as §3

GP12 peptide = molecular target: T20, GP12 peptide (human); assay: peptide ELISA, Fab
T20 peptide: Biotin-YPPEEETG
Text: as §3

GP16 peptide = molecular target: T21, GP16 peptide (human); assay: peptide ELISA, Fab
T21 peptide: Biotin-EETGERVQ
Text: as §3

GP15 peptide = molecular target: T22, GP15 peptide (human); assay: peptide ELISA, Fab
T22 peptide: Biotin-EEETGERV
Text: as §3

fold improvement of affinity against the parental antibody [1]: ~200 fold
B1: TPP-5907 Fab (Fab, V domains shown)
VH: EVQLVQSGAEVKKPGASVKVSCKASGYTFTTYTIHWVRQAPGQGLEWMGYINPGSGYTRYNPKFKGRVTMTRDKSTSTAYMELRSLRSDDTAVYYCQTGTRDYWGQGTTVTVSS
VL: DIQLTQSPSFLSASVGDRVTITCRASSSVSYIYWFQQKPGKAPKLLIYATSTLQSGVPSRFSGSGSGTEYTLTISSLQPEDFATYYCHQRNSFPYTFGQGTKLEIKR

percentage of input antibody bound [2]: 96% | percentage of input antibody bound [3]: 97% | percentage of input antibody bound [4]: 97% | percentage of input antibody bound [5]: 96% | percentage of input antibody bound [6]: 93% | binding signal in ELISA (relative light units) [7]: 0 RLU | binding signal in ELISA (relative light units) [8]: 0 RLU | binding signal in ELISA (relative light units) [9]: 2 RLU | binding signal in ELISA (relative light units) [10]: 71 RLU | binding signal in ELISA (relative light units) [11]: 5130 RLU | binding signal in ELISA (relative light units) [12]: 0 RLU | binding signal in ELISA (relative light units) [13]: 1 RLU | binding signal in ELISA (relative light units) [14]: 534 RLU | binding signal in ELISA (relative light units) [15]: 0 RLU | binding signal in ELISA (relative light units) [16]: 7230 RLU | binding signal in ELISA (relative light units) [17]: 0 RLU | binding signal in ELISA (relative light units) [18]: -1 RLU | binding signal in ELISA (relative light units) [19]: -1 RLU | binding signal in ELISA (relative light units) [20]: 0 RLU | binding signal in ELISA (relative light units) [21]: 14 RLU | binding signal in ELISA (relative light units) [22]: 291 RLU | binding signal in ELISA (relative light units) [23]: -1 RLU | binding signal in ELISA (relative light units) [24]: 0 RLU | binding signal in ELISA (relative light units) [25]: 18 RLU | binding signal in ELISA (relative light units) [26]: -1 RLU | binding signal in ELISA (relative light units) [27]: 3500 RLU | binding signal in ELISA (relative light units) [28]: -1 RLU | percentage of input antibody bound [29]: 97% | percentage of input antibody bound [30]: 89% | percentage of input antibody bound [31]: 98% | percentage of input antibody bound [32]: 92% | percentage of input antibody bound [33]: 94% | percentage of input antibody bound [34]: 96% | percentage of input antibody bound [35]: 92%
B2: TPP-7792, affinity matured 6C12 Fab (Fab, V domains shown)
VH: B1 VH with T33A, G54S, Q97W
VL: DIQLTQSPSFLSASVGDRVTITCRASSSVRYIYWFQQKPGKAPKLLIYATSFRQSGVPSRFSGSGSGTEYTLTISSLQPEDFATYYCHQRNSFPYTFGQGTKLEIK
notes: Tested as Fab with a 6xHIS tag

binding result (GP13 peptide): no binding (tested: 0.5 ug/ml) | binding result (GP7 peptide): no binding (tested: 0.5 ug/ml) | binding result (GP14 peptide): no binding (tested: 0.5 ug/ml) | binding result (GP11 peptide): no binding (tested: 0.5 ug/ml) | binding result (GP10 peptide): no binding (tested: 0.5 ug/ml) | binding result (GP12 peptide): no binding (tested: 0.5 ug/ml) | binding result (GP16 peptide): no binding (tested: 0.5 ug/ml) | binding result (GP15 peptide): no binding (tested: 0.5 ug/ml)
B3: TPP-7792 Fab (Fab, V domains shown)
VH: B1 VH with T33A, G54S, Q97W
VL: B2 VL
notes: as m92

binding result (GP13 peptide): no binding (tested: 0.5 ug/ml) | binding result (GP7 peptide): no binding (tested: 0.5 ug/ml) | binding result (GP14 peptide): no binding (tested: 0.5 ug/ml) | binding result (GP11 peptide): no binding (tested: 0.5 ug/ml) | binding result (GP10 peptide): no binding (tested: 0.5 ug/ml) | binding result (GP12 peptide): no binding (tested: 0.5 ug/ml) | binding result (GP16 peptide): no binding (tested: 0.5 ug/ml) | binding result (GP15 peptide): no binding (tested: 0.5 ug/ml)
B4: TPP-7790 Fab (Fab, V domains shown)
VH: B1 VH with T33A, G54S, G66H, Q97W
VL: B2 VL with R53L
notes: as m92
